In the RNAGym collection of RNA variant scans (doi:10.1073/pnas.2313332121):

B1: TPR t1 (parent)
chain: GACCAAUCUGCCCUCAGAGCUCGAGAACAUCUUCGGAUGCAGAGGAGGCAGGCUUCGGUGGCGCGAUAGCGCCAACGUCCUCAACCUCCAAUGCAUCCCACCACAUGAUGAUGCCUGAAGAGCCUUGGUUUUUUG

Variants of: B1
Assay: polymerase ribozyme fitness, log enrichment relative to wild type (log ratio); higher = more active; in vitro selection for triplet polymerase activity
Procedure, shortened: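 A single round of triplicate in vitro selection, including frozen incubation at −7 °C, was applied to PCR-built, transcribed mutant libraries of each subunit of a heterodimeric triplet polymerase ribozyme. Illumina sequencing of input and output libraries retained genotypes with ≥10 input reads and ≥1 read per output. Fitness is the base-2 logarithm of genotype enrichment divided by wild-type enrichment, from inverse-variance-weighted replicate averages.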

Point of comparison: GACCAAUCUGCCCUCAGAGCUCGAGAACAUCUUCGGAUGCAGAGGAGGCAGGCUUCGGUGGUGCGAUAGCGCCAACGCCCUGACCCUCCAAUACAUCCCACCACAUGAUGAUGCCUGAAGAGUCUUGGGUUUUUG [C62U U78C C82G A84C G93A C123U U129G], “polymerase ribozyme fitness (log ratio)” value -1.05. Against it:
- GACCAAUCUGCCCUCAGAGCUCGAGAACAUCUUCGGAUGCAGAGGAGGCAGGCUUCGGUGGUGCGAUAGCGCCAACGUCCUCAACCUCCAUUGCAUCCCACCACAUGAUGAUGCCUGAAAAGCCUUGGUUUUUUG [C62U A91U G120A] — lower, -2.6
- GACCAAUCUGCCCUCAGAGCUCGAGAACAUCUUCGGAUGCAGAGGAGGCAGGCUUCGGUGGUGCGAUAGCGCCAACGUCCUCAAUCUCCAAUGCAUCCCACCACAUGAUGAUGCCUGAAGAGACUUGGUUUUUUG [C62U C85U C123A] — within 0.2 log units, -1.23
- GACCAAUCUGCCCUCAGAGCUCGAGAACAUCUUCGGAUGCAGAGGAGGCAGGCUUCGGUGGUGCGAUAGCGCCAACGUCCUCAACCUCCAAUGCAUCCCAGCACAUGAUGAUGCCUGAAGAGCCUUGGUUUUUUG [C62U C101G] — lower, -1.35
- GACCAAUCUGCCCUCAGAGCUCGAGAACAUCUUCGGAUGCAGAGGAGGCAGGCUUCGGUGGUGCGAUAGCGCCAACGUCCUCAACCUCCAAUGCAUCCCAACACAUGAUGAUGCCUGAAGAGCCUUGGUUUUUUG [C62U C101A] — higher, -0.746
- GACCAAUCUGCCCUCAGAGCUCGAGAACAUCUUCGGAUGCAGAGGAGGCAGGCUUCGGUGGUGCGAUAGCGCCAACGUCCUCAACCUCCAAUCCAUCCCACCACAUGAUGAUGCCUGAAGAGCCUUGGUUUUUUG [C62U G93C] — lower, -1.8
- GACCAAUCUGCCCUCAGAGCUCGAGAACAUCUUCGGAUGCAGAGGAGGCAGGCUUCGGUGGUGCGAUAGCGCCAACGUCCUCAAACUCCAAUGCAUCCCAGCACAUGAUGAUGCCUGAAGAGCCUUGGUUUUUUG [C62U C85A C101G] — lower, -3.99
- GACCAAUCUGCCCUCAGAGCUCGAGAACAUCUUCGGAUGCAGAGGAGGCAGGCUUCGGUGGUGCGAUAGCGCCAACGUCCUCAAACUCCAAUGCAUCCCACCACAUGAUGAUGCCUGAAGAGCCUUGGUUUUUUG [C62U C85A] — lower, -2.09
- GACCAAUCUGCCCUCAGAGCUCGAGAACAUCUUCGGAUGCAGAGGAGGCAGGCUUCGGUGGUGCGAUAGCGCCAACGUCCUCAACCUCCAAUGCAUCCCACCACAUGAUGAUGCCUUAAGAGCCUUGGUUUUUUG [C62U G117U] — lower, -2.6
- GACCAAUCUGCCCUCAGAGCUCGAGAACAUCUUCGGAUGCAGAGGAGGCAGGCUUCGGUGGUGCGAUAGCGCCAACGUCCUCAACCUCCAAUGCAUCCCACCACAUGAUGAUGCCUAAAGAGCCUUGGUUUUUUG [C62U G117A] — lower, -1.28
- GACCAAUCUGCCCUCAGAGCUCGAGAACAUCUUCGGAUGCAGAGGAGGCAGGCUUCGGUGGUGCGAUAGCGCCAACGUCCCCAACCUCCAAUGCAUCCCAUCACAUGAUGAUGCCUGAAGAGCCUUGGUUUUUUG [C62U U81C C101U] — higher, -0.199
- GACCAAUCUGCCCUCAGAGCUCGAGAACAUCUUCGGAUGCAGAGGAGGCAGGCUUCGGUGGUGCGAUAGCGCCAACGUCCUCAAACUCCAAUGCAUCCCACCACAGGAUGAUGCCUGAAGAGGCUUGGUUUUUUG [C62U C85A U106G C123G] — within 0.2 log units, -1.11
- GACCAAUCUGCCCUCAGAGCUCGAGAACAUCUUCGGAUGCAGAGGAGGCAGGCUUCGGUGGUGCGAUAGUGCCAACGUCCUCAACCUCCAAUGCAUCCCACCACAUGAUGAUGCCUGAAGAGCCUUGGUUUUAUG [C62U C70U U133A] — higher, 0.14
- GACCAAUCUGCCCUCAGAGCUCGAGAACAUCUUCGGAUGCAGAGGAGGCAGGCUUCGGUGGUGCGAUAGCGCCAACGUCCUCAACCUGCAAUGCAUCCCACCACAUGAUGAUGCCUGAAGAGCCUUGGUUUUUUG [C62U C88G] — higher, -0.561
- GACCAAUCUGCCCUCAGAGCUCGAGAACAUCUUCGGAUGCAGAGGAGGCAGGCUUCGGUGGUUCGAUAGCGCCAACGUCCUCAACCUCCAAUGCAUCCCAUCACAUGAUGAUGCCUGAAGAGCCUUGGUUUUUUA [C62U G63U C101U G135A] — lower, -2.36
- GACCAAUCUGCCCUCAGAGCUCGAGAACAUCUUCGGAUGCAGAGGAGGCAGGCUUCGGUGGUGCGAUAGCGCCAACGUCCUAAACCUCCAAUGCAUCCCACCACAUGAUGAUGCCUGAAGAGCCUUGGUUUUUUG [C62U C82A] — lower, -1.44
- GACCAAUCUGCCCUCAGAGCUCGAGAACAUCUUCGGAUGCAGAGGAGGCAGGCUUCGGUGGUGCGAUAGCCCCAACGUCCUCAACCUCCAAUGCAUCCCACCACAUGAUGAUGCCUGAAGAGCCUUGGUUGUUUG [C62U G71C U131G] — higher, -0.416
- GACCAAUCUGCCCUCAGAGCUCGAGAACAUCUUCGGAUGCAGAGGAGGCAGGCUUCGGUGGUGCGAUAGCGCCAACGUCCUCAACCUCCAAUGCAUCCCACCACAUGAUCAUGCCUGAAGAGCUAUGGUUUUUUG [C62U G110C C124U U125A] — lower, -5.16
- GACCAAUCUGCCCUCAGAGCUCGAGAACAUCUUCGGAUGCAGAGGAGGCAGGCUUCGGUGGUGCGAUAGCGCCAACGUCCUCAACCUCCAAUGCAUGCCACCACAUGAUGAUGCCUGAAGUGCCUUGGUUUUUUG [C62U C97G A121U] — lower, -2.46
- GACCAAUCUGCCCUCAGAGCUCGAGAACAUCUUCGGAUGCAGAGGAGGCAGGCUUCGGUGGUGCGAUAGCGCCAACGUCCUCAACCUCCAAUGCAUCCCCCCACAUGAUGACGCCUGAAGAGCCUUGGUUUUUUG [C62U A100C U112C] — lower, -1.92
- GACCAAUCUGCCCUCAGAGCUCGAGAACAUCUUCGGAUGCAGAGGAGGCAGGCUUCGGUGGUGCGAUAGCGCCAACGUCCUCAACCUCCAAUGCGCCCCACCACAUGAUGAUGCCUGAAGAGCCUUGGUUUUUUG [C62U A95G U96C] — lower, -1.53
- GACCAAUCUGCCCUCAGAGCUCGAGAACAUCUUCGGAUGCAGAGGAGGCAGGCUUCGGUGGUUCGAUAGCGCCAACGGCCGCAACCUCCAAUGCAUCCCACCACAUGAUGAUGCCUGAAGAGCCUUGGUUUUUUG [C62U G63U U78G U81G] — lower, -5.08
- GACCAAUCUGCCCUCAGAGCUCGAGAACAUCUUCGGAUGCAGAGGAGGCAGGCUUCGGUGGUGCGAUAGCGCCAACGUCCUCAACCUCCAAUGCAUCCCACCACAAGAUGAUGCCUGAAUAGCGUUGGUUUUUUG [C62U U106A G120U C124G] — higher, 1.54
- GACCAAUCUGCCCUCAGAGCUCGAGAACAUCUUCGGAUGCAGAGGAGGCAGGCUUCGGUGGUGCGAUAGCGCCAACGUCCUCAACCUCCAAAGCAUCCCACCACAUGAUGAUGCCUGAAGAGCCUUGGUUUUUUG [C62U U92A] — lower, -3.44
- GACCAAUCUGCCCUCAGAGCUCGAGAACAUCUUCGGAUGCAGAGGAGGCAGGCUUCGGUGGUGCGAUAGCGCCAACGUCCUCAACCUCCAAGGCAUCCCACCACAUGAUGAUGCCUGAAGAGCCUUGGUUUUUUG [C62U U92G] — lower, -2.9
- GACCAAUCUGCCCUCAGAGCUCGAGAACAUCUUCGGAUGCAGAGGAGGCAGGCUUCGGUGGUCCGAUAGCGCCAACGUCCUCAACCUCCAAUGCAUCCCACCACAUGAUGAUGCCUGAAGAGCCUUGGUUUUUUG [C62U G63C] — lower, -2.14
- GACCAAUCUGCCCUCAGAGCUCGAGAACAUCUUCGGAUGCAGAGGAGGCAGGCUUCGGUGGUGCGAUAGCGCCAACGUCCUCAGCCUCCAAUGCAUCCCAACACAUGAUGAUGCCUGAAGAGUCUUGGUUUUUUG [C62U A84G C101A C123U] — within 0.2 log units, -1.03
- GACCAAUCUGCCCUCAGAGCUCGAGAACAUCUUCGGAUGCAGAGGAGGCAGGCUUCGGUGGUGCGAUAGCGCCAACGUCCUCAACUUCCAAUGCAUCCCUCCACAUGAUAAUGCCUGAAGAGCCUUGGGUUUUUG [C62U C86U A100U G110A U129G] — lower, -4.42
- GACCAAUCUGCCCUCAGAGCUCGAGAACAUCUUCGGAUGCAGAGGAGGCAGGCUUCGGUGGUGCGAUAGCGCCAACGUCCGCUACCUCUAAUGCAUCCCACCACAUGAUGAUGCCUUAAGAGCCUUGGUUUUUUG [C62U U81G A83U C89U G117U] — lower, -5.98
- GACCAAUCUGCCCUCAGAGCUCGAGAACAUCUUCGGAUGCAGAGGAGGCAGGCUUCGGUGGUGCGAUAGCGGCAACGUCCUCAACCUCCAAUGAAUCCCACCACAUGAUGAUGCCUGAAGAGCCUUGGUUUUUUG [C62U C72G C94A] — lower, -3.29
- GACCAAUCUGCCCUCAGAGCUCGAGAACAUCUUCGGAUGCAGAGGAGGCAGGCUUCGGUGGUGUGAUAGCGCCAACGUCCUCAACCUCCAAUGCAUCCCACCACAUGAUGAUGCCUGAAGAGACUUGAUUUUUUG [C62U C64U C123A G128A] — within 0.2 log units, -1.1
- GACCAAUCUGCCCUCAGAGCUCGAGAACAUCUUCGGAUGCAGAGGAGGCAGGCUUCGGUGGUGCUAUAGCGCCAACGUCCUCAACCUCCAAUGCAUCCCACCACAUGAUGAUGCCUGAAGAGCCUUGGUUUUUUG [C62U G65U] — lower, -3.73
- GACCAAUCUGCCCUCAGAGCUCGAGAACAUCUUCGGAUGCAGAGGAGGCAGGCUUCGGUGGUGCGAUAGAGCCAACGUCCUCAACCUCCAAUGGAUCCCACCACAUGAUGAUGCCUGAAGAGCCUUGGUUUUUUG [C62U C70A C94G] — lower, -3.73
- GACCAAUCUGCCCUCAGAGCUCGAGAACAUCUUCGGAUGCAGAGGAGGCAGGCUUCGGUGGUGCGAUAGCGCCAACGUCCUCAACCUCCAAUGCAUCACACCACAUGAUGAUGCCUGAAGAGCCUUGGUUUUUUG [C62U C98A] — lower, -5.51
- GACCAAUCUGCCCUCAGAGCUCGAGAACAUCUUCGGAUGCAGAGGAGGCAGGCUUCGGUGGUGCGAUAGCGCCAACGUCCUCAACCUCCAAUGCAUCCCACCACAUGAUGAUGCUUGAAGAGCCUUGGUUUUUUG [C62U C115U] — within 0.2 log units, -1.22
- GACCAAUCUGCCCUCAGAGCUCGAGAACAUCUUCGGAUGCAGAGGAGGCAGGCUUCGGUGGUGCGAUAGCGCCAACGUCCUCAACCUCCAAUGCAUCCCACCACACGAUGAUGCCUGAAGAGCCUUGGUUUUUUG [C62U U106C] — higher, -0.141
- GACCAAUCUGCCCUCAGAGCUCGAGAACAUCUUCGGAUGCAGAGGAGGCAGGCUUCGGUGGUGCGAUAGCGCCAACGUCCUCAACCUCCAAUGCAUCGCACCACAUGAUGAUGCCUCAAGAGCCUUGAUUUUCUG [C62U C98G G117C G128A U133C] — lower, -5.87
- GACCAAUCUGCCCUCAGAGCUCGAGAACAUCUUCGGAUGCAGAGGAGGCAGGCUUCGGUGGUGCGAUAGCGCCAACGUCCUCAACCUCCAAUGCAUCCCACCAAAUGAUGAUGCCUGAAGAGCCUUGGUUUUUUG [C62U C104A] — lower, -1.29
- GACCAAUCUGCCCUCAGAGCUCGAGAACAUCUUCGGAUGCAGAGGAGGCAGGCUUCGGUGGUGCGAUAGCGCCAACGUCCUCAACCUCCAAUGCAUCCCACCACAUGAUGAUCCCUGAAGAGCCUUCGUUUUUUG [C62U G113C G127C] — lower, -3.6
- GACCAAUCUGCCCUCAGAGCUCGAGAACAUCUUCGGAUGCAGAGGAGGCAGGCUUCGGUGGUGCGAUAGCGCCAACGUCCUCAACCUCCAAUGCAUCCCACCACAUGAUGAUGACUGAAGAGCCUUGGUUUUUUG [C62U C114A] — lower, -1.35
- GACCAAUCUGCCCUCAGAGCUCGAGAACAUCUUCGGAUGCAGAGGAGGCAGGCUUCGGUGGUGCGAUAGCGCCAACGUCCUCAACCACCAAUGCAUCCCACCACAUGAUGAUGCCUGAAGUGCCUUGGUUUUUUG [C62U U87A A121U] — higher, 2.07
- GACCAAUCUGCCCUCAGAGCUCGAGAACAUCUUCGGAUGCAGAGGAGGCAGGCUUCGGUGGUGCGAUAGCGCCAACGUCCUCAACCUCCACUGCAUCCCACCACAUGAUGAUGCCUGAAGAGCCUUGGUUUUUUG [C62U A91C] — lower, -1.43
